This assay deals with GFP (K49TAG) amber (TAG) codon / orthogonal CUA-encoding suppressor tRNA. The assay is described as follows: CFPS based GFP K49TAG amber suppression assay. Format: biochemical, E. coli. As to conditions: for full-length GFP expression by suppression of the TAG codon: clone titrated into CFPS reactions in the absence or presence of 4 μM non-natural amino acid; for amber suppression efficiency (levels of GFP detected): in the presence of the pyridyl-amino tetrazine compound (Formula I for 2A2, Formula II for 2A9), cell-free protein synthesis, 30° C., 12 h; for amber suppression (levels of GFP detected) without non-natural amino acid: reactions lacking the non-natural amino acid and containing the common naturally occurring amino acids. The method, then: The RS variants described herein were used to incorporate the compound of Formula I or the compound Formula II into the reporter protein Superfolder GFP. GFP containing a TAG stop codon at position 49 (GFP (K49TAG)) was expressed in a cell-free protein synthesis reaction as described in Zawada et al., 2011, Biotechnol. Bioeng., 108(7)1570-1578 with the following modifications. The cell free extracts were prepared from an OmpT sensitive RF-1 attenuated strain that was also engineered to overexpress E. coli DsbC, and a similar RF-1 attenuated E. coli strain that was engineered to produce an orthogonal CUA-encoding tRNA for insertion of a non-natural amino acid at an amber stop codon. The cell free extracts were blended (at a ratio of 85:15), and then added to a premix containing all other components of a cell-free protein synthesis system except for DNA encoding GFP (K49TAG). The final concentration in the cell-free protein synthesis reaction was 30% cell extract, with or without 2 mM non-natural amino acid (either Formula I or Formula II), 4 μM, 2 μM, 1 μM or no nnAA-specific RS variant (e.g., variant clone 1A7, 2A2, 1B7, 1B8, 2A1, 2B7, 2B5, 2A5, 2B4, 2B3, or 2A9), 8 mM magnesium glutamate, 10 mM ammonium glutamate, 130 mM potassium glutamate, 35 mM sodium pyruvate, 1.2 mM AMP, 0.86 mM each of GMP, UMP, and CMP, 2 mM amino acids (except 0.5 mM for tyrosine and phenylalanine), 4 mM sodium oxalate, 1 mM putrescine, 1.5 mM spermidine, 15 mM potassium phosphate, 100 nM T7 RNAP, 10 μg/mL GFP (K49TAG) expression template plasmid. The cell-free synthesis reactions were initiated by the addition of the plasmid DNA encoding GFP (K49TAG). The reactions were incubated at 30° C. for 12 h on a shaker at 650 rpm. After 12 hours of expression at the end point GFP fluorescence signal was measured at excitation at 476 nm, emission at 510 nm on a SpectraMax M5 fluorescence plate reader.
Similarly, clone 2A9, specific for Formula II, was titrated into the GFP-based amber supression CFPS reactions in the absence or presence of 4 μM Formula II.

The text below walks through data of patent US10179909B2, “Non-natural amino acid tRNA synthetases for pyridyl tetrazine” (priority 2013, dated 2019).

Residue numbers refer to the chain shown, from its start. Names may count otherwise.

Turning to `Cc1nnc(NCc2ccc(C[C@H](N)C(=O)O)nc2)nn1` [Formula I, (S)-2-amino-3-(5-((6-methyl-1,2,4,5-tetrazin-3-ylamino)methyl)pyridin-2-yl)propanoic acid], the “GFP levels relative to the positive GFP control reaction” value (reaction containing the non-natural amino acid and its specific RS clone (2A2 for Formula I, 2A9 for Formula II), control GFP has no premature stop codon) is given as “comparable”.

B1: Clone 2A2: M. jannaschii TyrRS variant for Formula I: Y32L, L65V, H70A, F108W, Q109S, D158V, I159A, L162V (protein, listed as Methanococcus jannaschii)
chain: MDEFEMIKRNTSEIISEEELREVLKKDEKSALIGFEPSGKIHLGHYLQIKKMIDLQNAGFDIIIVLADLAAYLNQKGELDEIRKIGDYNKKVFEAMGLKAKYVYGSEWSLDKDYTLNVYRLALKTTLKRARRSMELIAREDENPKVAEVIYPIMQVNVAHYVGVDVAVGGMEQRKIHMLARELLPKKVVCIHNPVLTGLDGEGKMSSSKGNFIAVDDSPEEIRAKIKKAYCPAGVVEGNPIMEIAKYFLEYPLTIKRPEKFGGDLTVNSYEELESLFKNKELHPMDLKNAVAEELIKILEPIRKRL
modifications: wild-type (WT) tyrosyl tRNA synthetase (TyrRS), reference sequence
notes: M. jannaschii TyrRS variant for Formula I: Y32L, L65V, H70A, F108W, Q109S, D158V, I159A, L162V
B1: the “full-length GFP expression by suppression of the TAG codon” value was “expressed only in the presence of the compound of Formula I”, the “amber suppression efficiency (levels of GFP detected)” value was “high amber suppression efficiencies” and the “amber suppression (levels of GFP detected) without non-natural amino acid” value is recorded as “substantially no amber supression”.

B2: Clone 2A9: M. jannaschii TyrRS variant for Formula II: Y32G, L65V, H70A, Q109S, D158G, L162S (protein, listed as Methanococcus jannaschii)
chain: B1 chain with L32G, W108F, V158G, A159I, V162S
modifications: wild-type (WT) tyrosyl tRNA synthetase (TyrRS), reference sequence
notes: M. jannaschii TyrRS variant for Formula II: Y32G, L65V, H70A, Q109S, D158G, L162S
B2: the “full-length GFP expression by suppression of the TAG codon” value was “expressed only in the presence of the compound of Formula II”, the “amber suppression efficiency (levels of GFP detected)” value is listed as “high amber suppression efficiencies” and the “amber suppression (levels of GFP detected) without non-natural amino acid” value is “substantially no amber supression”.
